FireProtDB (doi:10.1006/jmbi.1997.1365)

Details: Homo sapiens, pH 2.7, Thermal, DSC, glycine 0.05 M, reversible: yes, whole UniProt chain shown

B1: Lysozyme C wild type, P61626 (protein)
chain: MKALIVLGLVLLSVTVQGKVFERCELARTLKRLGMDGYRGISLANWMCLAKWESGYNTRATNYNAGDRSTDYGIFQINSRYWCNDGKTPGAVNACHLSCSALLQDNIADAVACAKRVVRDPQGIRAWVAWRNRCQNRDVRQYVQGCGV
64.9 °C
  heat capacity change of unfolding: 1.58 kcal/mol/K
  unfolding enthalpy (calorimetric): 114 kcal/mol
  unfolding enthalpy (van 't Hoff): 120 kcal/mol
  Tm: 64.9 °C
  heat capacity change of unfolding: 1.58 kcal/mol/K
